Measured values: patent publication US20150307617A1

Tests used:
[1] = target: human OX40 expressed on transfected BT-474 cells (fusion with 5' HSV glycoprotein D tag) (human) (UniProt P43489); test: flow cytometry, ACT35-PE staining of the BT474-human OX40 low clone
[2] = target: human OX40 expressed on transfected BT-474 cells (fusion with 5' HSV glycoprotein D tag) (human) (UniProt P43489); test: flow cytometry, ACT35-PE staining of the BT474-human OX40-high clone

Chain of human OX40 expressed on transfected BT-474 cells (fusion with 5' HSV glycoprotein D tag) (human) (P43489 29-277): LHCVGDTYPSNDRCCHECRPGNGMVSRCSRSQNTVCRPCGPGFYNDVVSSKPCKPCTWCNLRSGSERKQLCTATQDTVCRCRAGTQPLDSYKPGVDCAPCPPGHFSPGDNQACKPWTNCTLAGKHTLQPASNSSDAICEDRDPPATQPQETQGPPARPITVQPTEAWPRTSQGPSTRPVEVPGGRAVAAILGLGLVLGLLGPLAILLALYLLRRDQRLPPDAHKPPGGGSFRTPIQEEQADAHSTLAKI

MFI [1]: 994 MFI
MFI [2]: 5240 MFI
Substance: anti-human OX40 (PE) (clone ACT35) (antibody)
